Laboratory results as given in patent US11285283B2, “Methods for generating and delivering droplets to the pulmonary system using a droplet delivery device” (PNEUMA RESPIRATORY, INC., priority 2016, dated 2022).
Where “and” joins values, the source holds several entries; their conditions need not be identical. Equal values may be shown once.

Assays:
[1] = test system: patients with cystic fibrosis; details: cited from earlier work
[2] = Anderson Cascade Impactor testing of droplet delivery device with Albuterol sulfate (Example B); assay type: physicochemical
Description: Droplet size distribution and related functionality was evaluated for exemplary droplet delivery devices of the disclosure, including Anderson Cascade Impactor testing, total drug mass output rates, total drug respirable mass, delivery efficiencies and reproducibility.
The study was designed to evaluate device performance of a single Pneuma™ inhaler. A series of three (3) individual tests were conducted with a new disposable drug cartridge for each test. The testing platform utilizes an eight-stage nonviable Anderson Cascade Impactor (Thermo Fisher Scientific; Waltham, Mass.) equipped with a calibrated AALBORG model GFM47 mass flow meter (AALBORG Instruments and Controls; Orangeburg, N.Y.) for flow rate measurement.
At the conclusion of each test, the mouthpiece was rinsed with mobile phase and collected for HPLC analysis to determine the mass fraction of non-respirable aerosolized drug captured in the mouthpiece via inertial filtering. Following each test, impactor stage samples were extracted and recovered in solvent and analyzed for the active pharmaceutical ingredient (API) using a Dionex Ultimate 3000 nano-HPLC with UV detection (Thermo Scientific, Sunnyvale, Calif.).
The cascade impactor testing procedure involved fitting the mouthpiece into the Impactor USP throat with a mouthpiece connection seal. The vacuum pump supplying sample air flow to the cascade impactor was turned on and the pump control valves adjusted to supply 28.3 L/min total flow through the impactor and inhaler body during aerosol tests.
The device was connected to the impactor USB throat, turned on, and actuated ten (10) times for each test. At the conclusion of the test period, the device, impactor, and dilution air sources were turned off. The i mouthpiece was rinsed in order to extract drug, and all stages of the cascade impactor were rinsed with a quantity of appropriate solvent (HPLC mobile phase). Extracted samples were placed in labeled and sterile HPLC vials, capped, and analyzed for drug content via HPLC with UV detection. The mouthpiece was extracted of residual drug and analyzed for drug content via HPLC to measure mouthpiece drug deposition in relation to the total collected on the impactor stages.
All system flow rates and impactor sample flows were monitored throughout each test period. Following each test, the impactor slides were placed in labeled sterile Petri dishes, and impactor stages were extracted of drug using 2 ml of mobile phase applied with a calibrated micropipette. All extracted samples from the mouthpiece and impactor were placed in labeled sterile amber HPLC sample vials, and stored refrigerated at approximately 2° C. until HPLC analysis.
Impactor collection stages for all tests were rinsed with DI water and ethanol, and air dried prior to each inhaler test trial to avoid contamination. A new inhaler drug cartridge was used for each of the three individual tests.
All drug content analysis was performed using a Dionex Ultimate 3000 nano-HPLC equipped with a Dionex UVD-3000 multi-wavelength UV/VIS Detector using a micro flow cell (75 μm×10 mm path length, total analytical volume 44.2 nl). […] Total HPLC run time was 6 minutes per sample with approximately 5 minutes flush between each sample. Sample injection was performed with a 1 μl sample loop in full loop injection mode.
Buffer formulation contains reverseosmosis filtered deionized water with 1.13 gr of sodium 1-hexanesulfonate (Alfa Aesar) in 1200 ml of water, with 2 ml glacial acetic acid (Acros Organics) added. The mobile phase solution was mixed and filtered through a 0.45 μm filter membrane. The final mobile phase is a 60:40 dilution of Buffer: MEOH.

[3] = Insulin stability after aerosol generation, size exclusion chromatography; assay type: physicochemical
Source text: Alternately, to determine the stability of active agent after droplet generation, the generated stream of droplets including the active agent may be collected and SEC-HPLIC may be employed to monitor for any changes in large molecule aggregation and protein fragment content. Soluble protein aggregates and protein fragment content may be calculated by comparing respective peak area under the SEC-HPLC curve of dispensed protein solutions with controls (solutions remaining in the device reservoir).
Drug solutions for testing include Enbrel, (ENBREL® single-use prefilled syringes in 25 mg (0.51 mL of a 50 mg/mL solution of etanercept), and insulin, (Humalog, 200 units/ml, 3 ml kwikpens)
To calculate and compare effects of droplet generation through an ejector mechanism of the disclosure, the total area under the curve of the UV signal at 280 nm versus elution time for controls is compared with the aerosolized samples, which is set to 100%.
Aerosol collection and SEC is performed in a similar fashion as for the Enbrel analysis and aerosol collection.
Fifty microliters of the collected aerosol spray is injected onto the SEC column for analysis, while 50 mcl of the Kwikpen insulin solution is injected onto the SEC column for control samples.

[4] = Gel electrophoresis of active agent after droplet generation; assay type: physicochemical; details: after droplet generation with the device
Source text: To determine the stability of active agent after droplet generation, the generated stream of droplets including the active agent is collected and the molecular weight of the active agent is verified using gel electrophoresis.

[5] = Enbrel stability after aerosol generation, size exclusion chromatography; assay type: physicochemical; details: for Peak 1 Peak Area % / Peak 2 Peak Area % / Peak 3 Peak Area % / Peak 4 Peak Area % / Peak 5 Peak Area %: replicate samples
Source text: Alternately, to determine the stability of active agent after droplet generation, the generated stream of droplets including the active agent may be collected and […] may be employed to monitor for any changes in large molecule aggregation and protein fragment content. Soluble protein aggregates and protein fragment content may be calculated by comparing respective peak area under the SEC-HPLC curve of dispensed protein solutions with controls (solutions remaining in the device reservoir). Drug solutions for testing include Enbrel, (ENBREL® single-use prefilled syringes in 25 mg (0.51 mL of a 50 mg/mL solution of etanercept), and insulin, (Humalog, 200 units/ml, 3 ml […] is performed with a YarraTM 3 μm SEC-2000 LC column 300×7.8 mm, SecurityGuard cartridge kit and SecurityGuard cartridges GFC-2000, 4×3 mm ID. Fifty microliters of Enbrel from the syringe (ENBREL® single-use prefilled syringes in 25 mg/0.51 mL of a 50 mg/mL solution of etanercept) is diluted (4:1) (4 parts, 200 mcl of the mobile phase buffer solution to 1 part, 50 mcl Enbrel from syringe). Fifty microliter of the diluted Enbrel is injected and separation was performed at a flow rate of 1.0 ml/min. The mobile phase buffer system included a PHOS. BUFF. SALINE. […] UV detection is performed at 280 nm. […] An ampule/cartridge is filled with […] of Enbrel® (50 mg/ml) diluted 4:1 (10 mg/ml)(4 parts (200 mcl) of PBS and 0.025% NaN3 and 1 part (50 mcl of Enbrel solution from the syringe). After 20 actuations and aerosolization, about 150 mcl of the aerosolized Enbrel solution is recovered and collected in the polypropylene tube located below the ejector mechanism. The control consists of the diluted Enbrel solution, 50 mcl of which is injected into the SEC column for analysis.

[6] = Albuterol 0.5%, 28.3 lpm, 10 actuations
[7] = aerosolized, average of S1 and S2

NC[C@H]1O[C@H](O[C@H]2[C@H](O)[C@@H](O[C@H]3O[C@H](CO)[C@@H](O)[C@H](N)[C@H]3O)[C@H](N)C[C@@H]2N)[C@H](N)C[C@@H]1O [tobramycin]
pulmonary function after administration by inhalation ([1]; inhalation, without severe side effects to kidney functions): significantly improves pulmonary function | serum levels after intravenous administration ([1]; intravenous administration): toxic to the kidneys

Albuterol sulfate
droplets of an average diameter of less than about 5 μm [2, 6]: over 75% | droplets with an average diameter of less than about 4 μm [2, 6]: over 70% | Cum. % < ([2]; FILTER): 0.00% | Cum. % > ([2]; FILTER): 100.00% | Cum. % < ([2]; Pre-separator, cut diam. 10 μm): 100.00% | Cum. % > ([2]; Pre-separator, cut diam. 10 μm): 0.00%

Insulin: insulin, Humalog, 200 units/ml, 3 ml kwikpens
ejected dose forming a fragment which elutes at ~25 minutes ([3]; aerosolized with test device): 2.5% | Peak 1 Peak Area % ([3]; aerosolized with test device, 20 actuations, replicate samples): 27.881% and 28.721% | Peak 2 Peak Area % ([3]; aerosolized with test device, replicate samples): 69.780% and 67.807% | Peak 3 Peak Area % ([3]; aerosolized with test device, replicate samples, fragment, elution ~25 min): 2.184% and 2.797% | Peak 3 Peak Area %, Avg. [3, 7]: 2.4905 | Peak 1 Peak Area % ([3]; control, Kwikpen solution 200 U/ml, not aerosolized): 29.926% | Peak 2 Peak Area % ([3]; control, not aerosolized): 69.630% | Peak 3 Peak Area % ([3]; control, not aerosolized): 0%

adalimumab
change in electrophoretic mobility / molecular weight of post-aerosol active agent versus control [4]: negligible change

bevacizumab
change in electrophoretic mobility / molecular weight of post-aerosol active agent versus control [4]: negligible change

etanercept [Enbrel]
dose forming molecular fragments with elution times of 13 and 25 minutes ([5]; aerosolized with test device): 4.6% | Peak 1 Peak Area % ([5]; aerosolized with test device, 20 actuations): 3.476% and 2.796% | Peak 2 Peak Area % ([5]; aerosolized with test device): 92.112% and 90.789% | Peak 3 Peak Area % ([5]; aerosolized with test device): 0.361% and 0.424% | Peak 4 Peak Area % ([5]; aerosolized with test device, fragment, elution about 13 min): 0.352% and 0.357% | Peak 5 Peak Area % ([5]; aerosolized with test device, fragment, elution about 25 min): 3.428% and 5.130% and 5.123% | Peak 4 Peak Area %, Avg. [5, 7]: 0.3545 | Peak 5 Peak Area %, Avg. [5, 7]: 4.2755 | Peak 1 Peak Area % ([5]; control, Enbrel diluted 4:1 (10 mg/ml), not aerosolized): 2.428% and 3.041% | Peak 2 Peak Area % ([5]; control, not aerosolized): 96.676% and 95.909% | Peak 3 Peak Area % ([5]; control, not aerosolized): 0.373% and 0.351% | Peak 4 Peak Area % ([5]; control, not aerosolized): 0% | Peak 5 Peak Area % ([5]; control, not aerosolized): 0% | change in electrophoretic mobility / molecular weight of post-aerosol active agent versus control [4]: negligible change
